US20220177604A1
Where two headings read alike, the source gives them in different places.

Assays:
[1] = biological target: biotinylated human FcRn (human) (UniProt P55899); test: competition ELISA at pH 6: biotinylated human FcRn on neutravidin, competitor recombinant hIgG3 (m8), bound IgG3 detected
[2] = biological target: biotinylated human FcRn (human) (UniProt P55899); test: as above; remark: listed apart in the source
[3] = biological target: biotinylated human FcRn (human) (UniProt P55899); test: FcRn binding ELISA at pH 7: biotinylated human FcRn on neutravidin, anti-human IgG-Fc-HRP
[4] = biological target: biotinylated human FcRn (human) (UniProt P55899); test: as above; remark: listed apart in the source
[5] = biological target: biotinylated human FcRn (human) (UniProt P55899); test: FcRn binding ELISA at pH 6: biotinylated human FcRn on neutravidin, anti-human IgG-Fc-HRP
[6] = biological target: biotinylated human FcRn (human) (UniProt P55899); test: competition ELISA at pH 6: biotinylated human FcRn on neutravidin, competitor recombinant hIgG3 (m8), bound IgG3 detected; remark: listed apart in the source
[7] = biological target: biotinylated human FcRn (human) (UniProt P55899); test: FcRn binding ELISA at pH 6: biotinylated human FcRn on neutravidin, anti-human IgG-Fc-HRP; remark: listed apart in the source
[8] = biological target: human IgE pre-bound on human basophils (human) (UniProt P01854); test: cell-based or functional assay

Row | IC50 (read off the curve) [1] [nM] | IC50 (read off the curve) [2] [nM] | EC50 (read off the curve) [3] [nM] | EC50 (read off the curve) [4] [nM] | EC50 (read off the curve) [5] [nM] | IC50 (read off the curve) [6] [nM] | EC50 (read off the curve) [7] [nM] | % of activated basophils (CCR3+CD63+) [8] [%] | Substance
1 | 0.7 | 0.9 | 0.02 | 0.09 | 0.06 | 0.6 | 0.05 |  | Efgartigimod
2 |  |  |  |  |  |  |  | 3 | Irrelevant antibody
